{"source": "patent US20250297215A1", "about": "“METHOD FOR PRODUCING MILK LIKE PRODUCTS” (SOCIETE DES PRODUITS NESTLE S.A., priority 2021, published 2025)", "molecules": {"B1": {"name": "BMP4: bone morphogenetic protein 4 (314-BP-050, Bio-Techne AG), added to the culture media (protein, UniProt P12644 293-408, looked up)", "Bone morphogenetic protein 4": "SPKHHSQRARKKNKNCRRHSLYVDFSDVGWNDWIVAPPGYQAFYCHGDCPFPLADHLNSTNHAIVQTLVNSVNSSIPKACCVPTELSAISMLYLDEYDKVVLKNYQEMVVEGCGCR"}}, "key": {"[1]": {"system": "iPS-derived mammary-gland cells", "test": "LC-MS/MS targeted proteomic analysis of osteopontin protein secretion", "assay_type": "cell-based, human", "conditions": "also detected with control differentiation method", "source_text": "Human osteopontin peptides—GDSVVYGLR and -YPDAVATWLNPDPSQK were specifically detected in the cell culture supernatant by LC-MS/MS (FIG. 10).\nOsteopontin protein secretion was detected in the media of cultures of iPS-derived mammary-gland cells using control differentiation method, or with bone morphogenetic protein 4 (BMP4), retinoic acid (RA) and in the combination of the two factors."}, "[2]": {"system": "human-induced pluripotent stem cell (hiPSC) line 603", "test": "Flow cytometry quantification of mammary gland progenitor markers after BMP4 treatment, 3D-organoid setting", "assay_type": "cell-based", "conditions": "20 ng/ml BMP4, day 0 to day 3, flow cytometry", "experimental": "(§1) Methods: The human-induced pluripotent stem cell (hiPSC) line 603 was purchased from Fujifilm Cellular Dynamics, Inc (FCDI) and used for the 3D-differentiaion of mammary gland progenitors. Briefly, 5.5 million dissociated iPSCs were plated in the 6 well-plates (ultra-low attachment) containing 4.5 mL aggregation media using a planar shaker platform (set at 95 RPM). BMP4 (314-BP-050, Bio-Techne AG) at different concentrations was added to the culture media between day 0 and day 3."}, "[3]": {"system": "human-induced pluripotent stem cell (hiPSC) line 603", "test": "Nanostring RNA expression of lineage markers after BMP4 treatment, 3D-organoid setting", "assay_type": "cell-based", "experimental": "as §1\nResults: iPSC cells were tested with different concentrations of BMP4 to induce non-neural ectodermal differentiation (FIG. 6a, b). […] Expression of human TFAP2A and TFAP2C (AP2 Gamma) as predominant non-neural ectodermal markers were increased at day 10 of differentiation using Nanostring analysis compared to the control sample (FIG. 6g-h). Moreover, expression levels of human specific neural ectoderm markers, such as paired box gene 6 (PAX6), orthodenticle homeobox 2 (OTX2) and SRY-box transcription factor 11 (SOX11) were decreased during differentiation (FIG. 6i-k)."}, "[4]": {"system": "iPSC cells", "test": "RNA expression of ESRRA, KRT14 and MUC1 at end-stage of 3D-mammary gland differentiation", "assay_type": "cell-based, human", "conditions": "day 30, 33 and 35, compared to the control sample", "experimental": "The effect of BMP4 at the end-stage of 3D-mammary gland differentiation of iPSC cells was assessed using estrogen related receptor alpha (ESRRA), Keratin 14 (KRT14) and MUC1 for their expression profiles."}, "[5]": {"system": "iPSCs derived mammary gland organoids", "test": "Flow cytometry of progenitor markers, BMP4 and RA single or combined, 42 days and 31 days protocols", "assay_type": "cell-based, human", "conditions": "20 ng/ml BMP4, 1 μM RA, single or combination, compared to the control condition", "source_text": "In order to generate milk bioactives that closely resemble those found in human breast milk, different methods using bone morphogenetic protein 4 (BMP4) and retinoic acid (RA) in 42 days and 31 days as a shortened time-course protocol were established in a 3D-platform using iPSCs derived mammary gland organoids as a biomimetic model of the human mammary gland (FIG. 9)."}}}
{"molecule": "B1", "values": [{"measurement": "osteopontin protein secretion in culture media", "setting": "[1]", "value": "detected"}, {"measurement": "expression of mammary gland progenitor markers EpCAM (CD326), CD49f, MUC1 (CD227) and GATA3", "setting": "[2]", "value": "significantly induced"}, {"measurement": "expression of luminal marker KRT18 and osteopontin (OPN)", "setting": "[3]; RNA expression level", "value": "can induce the expression"}, {"measurement": "expression of human TFAP2A and TFAP2C (non-neural ectodermal markers)", "setting": "[3]; day 10 of differentiation, compared to the control sample", "value": "increased"}, {"measurement": "expression levels of neural ectoderm markers PAX6, OTX2 and SOX11", "setting": "[3]; during differentiation", "value": "decreased"}, {"measurement": "RNA expression levels of ESRRA, KRT14 and MUC1", "setting": "[4]", "value": "increased"}, {"measurement": "expression of mammary gland progenitor markers EpCAM, CD49f, MUC1 and GATA3 (induced or maintained)", "setting": "[5]", "value": "can induce the expression"}]}
